Drawing on patent US20200040059A1, this text covers MFI and MFI parental ratio (ratio to WT CD80 ECD-Fc) for 32 substances.

The target in assay [1] is human CD28, full-length, expressed on transfected Expi293 cells (human) (UniProt P10747). The experiment in a line: flow cytometry on CD28-expressing Expi293 cells. (In general: In flow cytometry, cells or beads pass a laser one at a time.)
The target of assay [2] is human PD-L1, full-length, expressed on transfected Expi293 cells (human) (UniProt Q9NZQ7). The experiment in a line: flow cytometry on PD-L1-expressing Expi293 cells.
Sequence of human PD-L1, full-length, expressed on transfected Expi293 cells (human) (Q9NZQ7 19-290 limits assumed): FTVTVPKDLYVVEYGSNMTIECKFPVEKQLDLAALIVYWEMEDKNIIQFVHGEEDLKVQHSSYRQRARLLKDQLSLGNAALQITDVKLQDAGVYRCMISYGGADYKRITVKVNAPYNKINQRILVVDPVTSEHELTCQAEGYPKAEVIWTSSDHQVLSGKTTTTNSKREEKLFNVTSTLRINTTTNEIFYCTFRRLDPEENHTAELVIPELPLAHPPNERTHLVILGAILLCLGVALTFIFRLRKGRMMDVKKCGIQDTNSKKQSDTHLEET
In assay [3] the target is human CTLA-4, full-length, expressed on transfected Expi293 cells (human) (UniProt P16410). The experiment in a line: flow cytometry on CTLA-4-expressing Expi293 cells.
Sequence of human CTLA-4, full-length, expressed on transfected Expi293 cells (human) (P16410 36-223 limits assumed): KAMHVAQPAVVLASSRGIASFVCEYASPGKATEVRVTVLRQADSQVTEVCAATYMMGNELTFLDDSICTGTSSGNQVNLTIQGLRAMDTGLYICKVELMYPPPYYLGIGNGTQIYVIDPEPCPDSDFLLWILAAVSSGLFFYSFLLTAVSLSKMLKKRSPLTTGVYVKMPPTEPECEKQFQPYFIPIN
Another assay deals with CD28 (human) (UniProt P10747). The experiment in a line: flow cytometry on HEK293 cells transfected with CD28.
In a further assay the target is CTLA4 (human) (UniProt P16410). Briefly: flow cytometry on HEK293 cells transfected with CTLA4.
Sequence of CTLA4 (human) (P16410 36-223 limits assumed): as above
The target of a further assay is PD-L1 (human) (UniProt Q9NZQ7). Briefly: flow cytometry on HEK293 cells transfected with PD-L1.
Sequence of PD-L1 (human) (Q9NZQ7 19-290 limits assumed): as the sequence (Q9NZQ7 19-290 limits assumed) above
Assay [4] deals with human CD28, full length, on transfected HEK293 cells (human) (UniProt P10747). Briefly: flow cytometry, Fc fusion at 66.6 nM on HEK293 cells transfected with CD28.
For assay [5], the target named is human PD-L1, full length, on transfected HEK293 cells (human) (UniProt Q9NZQ7). Briefly: flow cytometry, Fc fusion at 22.2 nM on HEK293 cells transfected with PD-L1.
Sequence of human PD-L1, full length, on transfected HEK293 cells (human) (Q9NZQ7 19-290 limits assumed): as above
Assay [6] has as its target human CTLA4, full length, on transfected HEK293 cells (human) (UniProt P16410). The experiment in a line: flow cytometry, Fc fusion at 66.6 nM on HEK293 cells transfected with CTLA4.

Sequence of CD80 IgV Fc (wild-type CD80 IgV domain fused to Fc) (P33681 35-141 limits assumed): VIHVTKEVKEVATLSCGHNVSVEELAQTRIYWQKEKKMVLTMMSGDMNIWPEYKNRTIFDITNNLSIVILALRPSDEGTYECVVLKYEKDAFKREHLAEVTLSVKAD
Sequence of human CTLA4, full length, on transfected HEK293 cells (human) (P16410 36-223 limits assumed): as the sequence (P16410 36-223 limits assumed) above

Regarding “CD80 variant K37E/F59S/L70Q/A91G/T120S/T130A ECD-Fc fusion (from UniProt P33681 35-242)”, the MFI was determined as 20 MFI in [1], 6 MFI in assay [2] and 74 MFI in [3].

As to “CD80 variant E52G/L70Q/A91G/T120S/T130A ECD-Fc fusion (from UniProt P33681 35-242)”, the figures for the MFI in assay [2] and in assay [3] were 6 MFI and 245 MFI, respectively.

In the case of “CD80 variant E24G/R29D/Y31L/Q33H/K36G/M38I/T41A/M43R/M47T/F59L/E81V/L85R/K89N/A91T/F92P/K93V/R94L/H96R ECD-Fc fusion”, the MFI was 1070 MFI in assay [1], 1120 MFI in [2] and 1020 MFI in [3]. For the same substance, the results for the MFI parental ratio (ratio to WT CD80 ECD-Fc) in assay [1], in [2] and in assay [3] were 0.08, 0.06 and 0.02, respectively.

Turning to “CD80 IgV-Fc M42I/I61V/A71D (from UniProt P33681 35-141) (Fc fusion)”, the MFI at 66.6 nM with CD28 (human) was determined as 6070 MFI; with CTLA4 (human), 54500 MFI. The substance also gave an MFI at 22.2 nM with PD-L1 (human) of 4230 MFI.

With “CD80 IgV-Fc E35D/M47I/L65P/D90N (from UniProt P33681 35-141) (Fc fusion)”, the values for the MFI at 66.6 nM in the assay with CD28 (human) and in the assay with CTLA4 (human) were 2530 MFI and 4410 MFI, respectively. For the same substance, the MFI at 22.2 nM in the assay with PD-L1 (human) was determined as 4030 MFI.

Take “CD80 IgV Fc (wild-type CD80 IgV domain fused to Fc) (from UniProt P33681 35-141) (Fc fusion)”: the values for the MFI at 66.6 nM in assay [4] and in assay [6] were 1620 MFI and 20700 MFI, respectively. This substance also had an MFI at 22.2 nM in [5] of 1770 MFI.

On to “CD80 variant IgV-Fc A26E/E35D/M47L/L85Q (from UniProt P33681 35-141) (Fc fusion)”, for which the MFI at 66.6 nM in [4] came to 2270 MFI; in [6], 40300 MFI. In addition, in [5], the MFI at 22.2 nM amounted to 55500 MFI.

Turning to “CD80 variant IgV-Fc Q27L/E35D/M47I/T57I/L70Q/E88D (from UniProt P33681 35-141) (Fc fusion)”, the MFI at 22.2 nM in [5] worked out at 1050 MFI. Moreover, the MFI at 66.6 nM in assay [6] came out at 59800 MFI.

In [3], “CD80 variant L70Q/A91G/T110A/T120S/T130A ECD-Fc fusion (from UniProt P33681 35-242)” displayed an MFI of 14 MFI.

With “CD80 IgV-Fc L25S/E35D/M47I/D90N (from UniProt P33681 35-141) (Fc fusion)”, the MFI at 66.6 nM in the assay with CD28 (human) turned out to be 4840 MFI; with CTLA4 (human) it was 61300 MFI. In the assay with PD-L1 (human), the MFI at 22.2 nM amounted to 20900 MFI.

Regarding “CD80 IgV-Fc A71D (from UniProt P33681 35-141) (Fc fusion)”, the values for the MFI at 66.6 nM in the assay with CD28 (human) and with CTLA4 (human) were 16800 MFI and 220000 MFI, respectively. Besides, the MFI at 22.2 nM with PD-L1 (human) came to 29600 MFI.

Take “CD80 variant IgV-Fc E35D/D46V/L85Q (from UniProt P33681 35-141) (Fc fusion)”: the MFI at 66.6 nM is 7510 MFI in assay [4] and 86000 MFI in assay [6]. In addition, the MFI at 22.2 nM in assay [5] was 38100 MFI.

In the case of “CD80 IgV-Fc T57I (from UniProt P33681 35-141) (Fc fusion)”, the MFI at 66.6 nM with CD28 (human) is 23600 MFI; with CTLA4 (human), 394000 MFI. Also, the MFI at 22.2 nM in the assay with PD-L1 (human) came to 3380 MFI.

The substance “CD80 variant IgV-Fc Q27H/E35G/A71D/L72P/T79I (from UniProt P33681 35-141) (Fc fusion)” returned an MFI at 22.2 nM in assay [5] of 1450 MFI. The same substance displayed an MFI at 66.6 nM in [6] of 85100 MFI.

On to “CD80 IgV-Fc T79P (from UniProt P33681 35-141) (Fc fusion)”, for which the MFI at 66.6 nM stood at 2660 MFI in the assay with CD28 (human) and 2000 MFI with CTLA4 (human). This substance had an MFI at 22.2 nM with PD-L1 (human) of 4410 MFI.

In the case of “CD80 IgV-Fc T13R/C16R/L70Q/A71D (from UniProt P33681 35-141) (Fc fusion)”, the MFI at 66.6 nM with CD28 (human) came to 16100 MFI; with CTLA4 (human) it was 197000 MFI. Also, the MFI at 22.2 nM with PD-L1 (human) is 9520 MFI.

Turning to “CD80 IgV-Fc M47V/N48H (from UniProt P33681 35-141) (Fc fusion)”, the MFI at 66.6 nM with CD28 (human) turned out to be 14600 MFI; in the assay with CTLA4 (human), 207000 MFI. Further, the MFI at 22.2 nM with PD-L1 (human) worked out at 146000 MFI.

In assay [5], “CD80 variant IgV-Fc E35D/M43L/L70M (from UniProt P33681 35-141) (Fc fusion)” came in with an MFI at 22.2 nM of 40600 MFI. In assay [6], this substance displayed an MFI at 66.6 nM of 102000 MFI.

As for “CD80 variant IgV-Fc V22L/E35D/M43L/A71G/D76H (from UniProt P33681 35-141) (Fc fusion)”, the MFI at 66.6 nM was found to be 1500 MFI in [4] and 2970 MFI in [6]. In [5], this substance yielded an MFI at 22.2 nM of 1850 MFI.

Regarding “CD80 variant IgV-Fc E23G/A26S/E35D/T62N/A71D/L72V/L85M (from UniProt P33681 35-141) (Fc fusion)”, the MFI at 66.6 nM in assay [4] worked out at 5480 MFI; in assay [6], 59000 MFI.

As to “CD80 IgV-Fc L72P/T79I (from UniProt P33681 35-141) (Fc fusion)”, the MFI at 66.6 nM in the assay with CD28 (human) turned out to be 3400 MFI; with CTLA4 (human), 50200 MFI. Also, the MFI at 22.2 nM with PD-L1 (human) was determined as 6020 MFI.

Regarding “CD80 variant K89R/D90K/A91G/F92Y/K93R/N122S/N178S ECD-Fc fusion (from UniProt P33681 35-242)”, the values for the MFI in assay [1] and in assay [3] were 41700 MFI and 49400 MFI, respectively.

In the case of “CD80 variant K36E/I67T/L70Q/A91G/T120S/T130A/N152T ECD-Fc fusion (from UniProt P33681 35-242)”, the figures for the MFI in assay [1] and in assay [2] were 8 MFI and 5 MFI, respectively.

In the case of “CD80 variant K89E/T130A ECD-Fc fusion (from UniProt P33681 35-242)”, in assay [3], the MFI was determined as 148 MFI.

For the substance “CD80 variant IgV-Fc T41S/T57I/L70R (from UniProt P33681 35-141) (Fc fusion)”, the MFI at 66.6 nM came to 4900 MFI in [4] and 59800 MFI in [6]. The MFI at 22.2 nM in assay [5] came to 19500 MFI.

In [5], “CD80 variant IgV-Fc V20I/A71D (from UniProt P33681 35-141) (Fc fusion)” had an MFI at 22.2 nM of 3550 MFI. In assay [6], this substance displayed an MFI at 66.6 nM of 60300 MFI.

As to “CD80 variant A91G/S103P ECD-Fc fusion (from UniProt P33681 35-242)”, the MFI in assay [1] came to 39 MFI; in assay [2], 9 MFI.

Take “CD80 variant IgV-Fc A26P/E35D/M43I/L85Q/E88D (from UniProt P33681 35-141) (Fc fusion)”: the MFI at 66.6 nM in assay [4] is 5410 MFI; in assay [6], 83100 MFI. In assay [5], this substance showed an MFI at 22.2 nM of 9510 MFI.

Regarding “CD80 variant IgV-Fc M47V/I69F/A71D/V83I (from UniProt P33681 35-141) (Fc fusion)”, the MFI at 66.6 nM came out at 15900 MFI in [4] and 76900 MFI in assay [6]. The substance also had an MFI at 22.2 nM in assay [5] of 3400 MFI.

For the substance “CD80 IgV-Fc M47I/E88D (from UniProt P33681 35-141) (Fc fusion)”, the MFI at 66.6 nM was determined as 7340 MFI in the assay with CD28 (human) and 105000 MFI with CTLA4 (human). The substance also showed an MFI at 22.2 nM with PD-L1 (human) of 97700 MFI.

For the substance “CD80 IgV-Fc S44P/A71D (from UniProt P33681 35-141) (Fc fusion)”, the MFI at 66.6 nM stood at 2740 MFI with CD28 (human) and 8840 MFI with CTLA4 (human). In addition, the MFI at 22.2 nM in the assay with PD-L1 (human) came out at 6310 MFI.

Turning to “CD80 variant IgV-Fc L70Q/A71D (from UniProt P33681 35-141) (Fc fusion)”, the MFI at 66.6 nM in assay [4] was 18600 MFI; in [6], 45000 MFI. The same substance yielded an MFI at 22.2 nM in [5] of 1690 MFI.
